Data on 3 molecules can be found in patent US20260078196A1 (TJ BIOPHARMA SHANGHAI, published 2026).

Test [1] deals with T1, monomeric human 4-1BB (human, UniProt Q07011 24-186, limits assumed).
T1 construct: SPR analyte/ligand
Nature of the test: SPR, measured in parallel. A general note: In SPR one partner is held on a chip, and binding of the other changes the refractive index at the surface.

The target of test [2] is T1, monomeric human 4-1BB. Nature of the test: SPR, monomeric human 4-1BB.
The next test has as its target T2, 4-1BB on cells (human, UniProt Q07011 24-255).
T2 construct: Species is stated as human for section 2.2 as a whole, not for each cell line; also called HEK293 cells expressing 4-1BB; 4-1BB overexpressed HEK293 cell
Nature of the test: flow cytometry (GMFI) on HEK293T-4-1BB cells. On the technique in general: Flow cytometry measures light scatter and fluorescence of single cells or particles in a stream.

Test [3] addresses T3, soluble recombinant human 4-1BB (human, UniProt Q07011 24-186).
T3 construct: ELISA antigen
Description: ELISA (OD450) on soluble recombinant human 4-1BB. On the technique in general: ELISA stands for enzyme-linked immunosorbent assay.

Test [4] concerns the target T4, human MUC16 on cells (human, UniProt Q8WXI7 1-14507).
T4 construct: whole, on cells; also called huMUC16; MUC16 on OVCAR3 and SNU216 cells
Nature of the test: flow cytometry (MFI GeoMean) on OVCAR3 cells, nM is the unit of the x axis Log10[Ab] (nM).

In test [5] the target is T4, human MUC16 on cells. Nature of the test: flow cytometry (MFI GeoMean) on SNU216 cells, nM is the unit of the x axis Log10[Ab] (nM).
Test [6] has as its target T5, HEK293-MUC16 (13810-14507) (human, UniProt Q8WXI7 13810-14507).
T5 construct: range 13810-14507; also called MUC16 overexpressed HEK293 cells
T5 sequence: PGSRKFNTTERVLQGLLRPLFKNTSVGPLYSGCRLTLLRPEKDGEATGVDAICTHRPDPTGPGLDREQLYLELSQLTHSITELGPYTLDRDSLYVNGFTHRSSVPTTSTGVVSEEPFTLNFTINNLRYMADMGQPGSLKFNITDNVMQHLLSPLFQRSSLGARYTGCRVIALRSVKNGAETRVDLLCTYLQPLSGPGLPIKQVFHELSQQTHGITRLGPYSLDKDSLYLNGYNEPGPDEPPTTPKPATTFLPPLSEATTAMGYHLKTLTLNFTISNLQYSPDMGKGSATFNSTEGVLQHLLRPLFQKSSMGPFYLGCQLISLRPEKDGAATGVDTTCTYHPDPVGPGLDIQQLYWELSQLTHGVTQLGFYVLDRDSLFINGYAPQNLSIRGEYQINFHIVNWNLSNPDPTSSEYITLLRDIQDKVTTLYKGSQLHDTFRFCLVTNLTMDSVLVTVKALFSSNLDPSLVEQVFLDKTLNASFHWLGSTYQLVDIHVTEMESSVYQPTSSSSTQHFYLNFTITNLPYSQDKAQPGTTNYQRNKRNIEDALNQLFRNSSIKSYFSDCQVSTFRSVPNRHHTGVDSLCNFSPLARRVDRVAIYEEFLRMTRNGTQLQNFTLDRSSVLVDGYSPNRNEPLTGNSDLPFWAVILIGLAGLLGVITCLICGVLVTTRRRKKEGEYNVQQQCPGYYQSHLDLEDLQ
Description: flow cytometry (MFI GeoMean) on HEK293-MUC16 (13810-14507) cells; the curve lies on the Iso curve up to about 4 nM and reaches only about 8000 at 100 nM against 40000-75000 for the others; paragraph 397 says h3A5 does not bind these cells; no unit in the table, nM from the x axis.

The target of test [7] is T6, human CLDN6 on cells (human, UniProt P56747 1-220).
T6 construct: CHO-K1 cells stably expressing human CLDN6, and OVCAR3 / OV90 cells with endogenous CLDN6; also called CHO-K1-CLDN6; CLDN6 on OVCAR3 and OV90 cells
T6 sequence: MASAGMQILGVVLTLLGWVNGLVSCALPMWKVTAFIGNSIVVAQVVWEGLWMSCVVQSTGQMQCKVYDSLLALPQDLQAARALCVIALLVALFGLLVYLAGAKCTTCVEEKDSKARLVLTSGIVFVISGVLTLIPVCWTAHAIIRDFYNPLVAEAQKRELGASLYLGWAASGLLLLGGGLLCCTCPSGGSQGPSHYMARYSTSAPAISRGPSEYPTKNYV
Description: flow cytometry (GMFI) on OV90 cells.

Test [8] addresses T6, human CLDN6 on cells. Description: flow cytometry (GMFI) on OVCAR3 cells.
Test [9] addresses T6, human CLDN6 on cells. Nature of the test: flow cytometry (GMFI) on CHO-K1-CLDN6 cells.

T1 sequence (Q07011 24-186 limits assumed): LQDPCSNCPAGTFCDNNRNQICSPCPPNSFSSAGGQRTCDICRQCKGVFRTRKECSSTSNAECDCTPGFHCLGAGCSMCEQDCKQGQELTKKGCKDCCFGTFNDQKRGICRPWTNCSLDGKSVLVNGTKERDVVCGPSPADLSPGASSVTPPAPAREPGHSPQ
T2 sequence (Q07011 24-255): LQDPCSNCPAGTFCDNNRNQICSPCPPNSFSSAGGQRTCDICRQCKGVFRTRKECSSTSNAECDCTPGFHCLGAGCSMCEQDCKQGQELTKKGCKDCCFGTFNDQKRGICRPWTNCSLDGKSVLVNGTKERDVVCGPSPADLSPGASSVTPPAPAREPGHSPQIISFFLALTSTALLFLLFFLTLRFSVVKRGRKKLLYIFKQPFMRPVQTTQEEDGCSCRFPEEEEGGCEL
T3 sequence (Q07011 24-186 limits assumed): as the sequence (Q07011 24-186 limits assumed) above

B1: parental anti-4-1BB sdAb antibody conjugated with IgG1 Fc fragment (Fc fusion)
chain: QVQLQESGGGLVQPGGSLRLSCAASGYTYSSNCMGWFRQAPGKGLEGVAVICTGGGSPSYADSVKGRFTISRDNAKNTLYLQMNSLRAEDTAVYYCAADLLRAGTPLSSYEFNYWGQGTLVTVSS
notes: also called 4-1BB sdAb-Fc; not shown: IgG1 Fc fragment
As to B1, binding with monomeric human 4-1BB [1] was characterised by a dissociation constant (Kd) of 4390 pM. This molecule also displayed a kon in the test with monomeric human 4-1BB [2] of 383000 M⁻¹ s⁻¹. Also, the EC50 with 4-1BB on cells worked out at 131 pM; in test [3], 71 pM.

B2: 3A5 (antibody, human IgG1, kappa, V domains shown)
VH: EVQLVESGGGLVQPGGSLRLSCAASGYSITNDYAWNWVRQAPGKGLEWVGYISYSGYTTYNPSIKSRFTISRDTSKNTLYLQMNSLRAEDTAVYYCARWTSGLDYWGQGTLVTVSS
VL: DIQMTQSPSSLSASVGDRVTITCKASDLIHNWLAWYQQKPGKAPKLLIYGATSLETGVPSRFSGSGSGTDFTLTISSLQPEDFATYYCQQYWTTPFTFGQGTKVEIKR
notes: Benchmark anti-MUC16 antibody; printed both as h3A5 and 3A5; also called h3A5; benchmarker 3A5
Take B2: the EC50 amounted to 799 pM in the test with human MUC16 on cells [4], 570 pM with human MUC16 on cells [5] and 63400 pM in [6].

B3: parental CLDN6-1 antibody (antibody, V domains shown)
VH: QVQLQESGPGLVKPSETLSLTCTVSGYSITSGYYWNWIRQPPGKGLEWMGYISYSGSNNYNPSLKNRVTISRDTSKNQFSLKLSSVTAADTAVYYCARGGYYFDYWGQGTLVTVSS
VL: DIVMTQSPDSLAVSLGERATINCKSSQSLLNTNNQKNYLAWYQQKPGQPPKLLIYFASTRESGVPDRFSGSGSGTDFTLTISSLQAEDVAVYFCQQHYNAPRTFGGGTKVEIK
For B3, the concentration giving a half-maximal response (EC50) with human CLDN6 on cells [7] came to 1200 pM; with human CLDN6 on cells [8], 5100 pM; in the test with human CLDN6 on cells [9], 452 pM.

By Kd is commonly meant the constant that tells how readily two partners part at equilibrium. In general, kon refers to a measure of how fast the partners come together. What is called EC50 is the concentration giving half of the maximal effect.
